Experimental data as given in patent publication US20210277119A1 (MARENGO THERAPEUTICS, published 2021).
Changes are numbered by the printed parent chain.

T1: recombinant protein TCRVB 6-5 (human, UniProt A0A0K0K1A5 22-114, limits assumed, captured on a Biotin CAP sensor chip (biotinylated; site not stated))
T1 construct: also called TCRVβ 6-5; TCRβ V6-5*01
T1 sequence (TCR beta): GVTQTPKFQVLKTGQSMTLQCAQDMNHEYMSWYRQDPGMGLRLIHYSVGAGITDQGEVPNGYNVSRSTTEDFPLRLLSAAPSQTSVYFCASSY

B1: A-H.52 (scFv)
scFv: QVQLVQSGAEVKKPGSSVKVSCKASGYSFTLGYIHWVRQAPGQGLEWMGWFFPGSGNIKYNEKFKGRVTITADTSTSTAYMELSSLRSEDTAVYYCAGSYYSYDVLDYWGQGTTVTVSSGGGGSGGGGSGGGGSGGGGSDIQMTQSPSFLSASVGDRVTITCKASQNVGINVVWHQQKPGKAPKALIYSSSHRYSGVPSRFSGSGSGTEFTLTISSLQPEDFATYFCQQFKSYPLTFGQGTKLEIK
notes: Said to be a phage clone and a monovalent scFv; also called phage clone; monovalent scFv
B2: A-H.54 (scFv)
scFv: B1 scFv with T30H, L31N, G32W
notes: Called a phage clone; also called phage clone
B3: A-H.53 (scFv)
scFv: B1 scFv with T30R, G32T
notes: as for B2

Target: T1, recombinant protein TCRVB 6-5
Test: SPR, TCRVB 6-5 captured on Biotin CAP chip, analyte from 50 nM in two-fold dilutions, 1:1 model, 25 C
Procedure: (§1) TCRVB 6-5 at 5 ug/mL was immobilized on a Biotin CAP Series S Sensor Chip to 60 RU. A-H.52 was diluted to 50 nM and then serially diluted two fold. Association was 120 seconds, dissociation was 300 seconds. This assay was run in 1×HBS-EP+ Buffer pH 7.4 and 25 C. The data was fit using a 1:1 binding model. A-H.52 is a phage clones and is a monovalent scFv. A-H.52 has two mutations on CDRH1.
(§2) TCRVB 6-5 at 5 ug/mL was immobilized on a Biotin CAP Series S Sensor Chip to 60 RU. A-H.53 was diluted to 50 nM and then serially diluted two fold. Association was 120 seconds, dissociation was 300 seconds. This assay was run in 1×HBS-EP+ Buffer pH 7.4 and 25 C. The data was fit using a 1:1 binding model. A-H.53 (phage clone) affinity is in the pM range (Table 16).
as §1, with “A-H.54” for “A-H.52”, “model.” for “model. A-H.52 is a phage clones and is a monovalent scFv. A-H.52 has two mutations on CDRH1.”

**Q.** B1 was tested. Which Kd did it give?
**A.** Its Kd is 1.76 nM.

**Q.** With B2 as the binder, how does the Kd read?
**A.** Its Kd is 2.22 nM.

**Q.** Which Kd does the source give for B3 here?
**A.** Its Kd is 0.165 nM.

Target: T1, recombinant protein TCRVB 6-5
Test: SPR, TCRVB 6-5 on Biotin CAP chip, compared with BJM0277
Procedure: as §1, §2
as §1, with “A-H.54” for “A-H.52”, “model.” for “model. A-H.52 is a phage clones and is a monovalent scFv. A-H.52 has two mutations on CDRH1.”

**Q.** For B1, which “fold greater affinity than BJM0277” value is on record?
**A.** The value was 20 fold.

**Q.** Which “fold greater affinity than BJM0277” value does the source give for B2 here?
**A.** The value was 17 fold.

**Q.** Which “fold greater affinity than BJM0277” value does the source give for B3 here?
**A.** The value was 200 fold.
